In patent publication US20230218738A1 (Pfizer, published 2023):
Substitutions are numbered along the chain they refer to.

T1: RSV F protein mutant pXCS827 (RSV A2, UniProt P03420 26-109)
T1 chain 1: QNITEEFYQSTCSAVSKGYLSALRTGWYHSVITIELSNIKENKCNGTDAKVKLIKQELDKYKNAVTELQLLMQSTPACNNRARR
T1 chain 2: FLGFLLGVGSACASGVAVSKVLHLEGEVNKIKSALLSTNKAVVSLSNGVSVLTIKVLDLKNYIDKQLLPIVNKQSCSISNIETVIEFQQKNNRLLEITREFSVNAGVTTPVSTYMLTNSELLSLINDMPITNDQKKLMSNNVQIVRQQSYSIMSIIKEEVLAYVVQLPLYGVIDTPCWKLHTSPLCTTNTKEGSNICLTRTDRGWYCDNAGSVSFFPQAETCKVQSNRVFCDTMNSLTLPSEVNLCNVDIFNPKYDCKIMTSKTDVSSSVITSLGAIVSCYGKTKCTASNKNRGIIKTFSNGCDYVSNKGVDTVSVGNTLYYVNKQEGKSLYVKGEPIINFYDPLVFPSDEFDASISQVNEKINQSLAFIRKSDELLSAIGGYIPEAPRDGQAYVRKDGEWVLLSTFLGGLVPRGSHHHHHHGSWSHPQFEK

T2: RSV F protein mutant pXCS858 (RSV A2, UniProt P03420 26-109)
T2 chain 1: T1 chain 1 with S30C, C78T
T2 chain 2: T1 chain 2 with C12I, L52C, V160I, D350S

T3: RSV F protein mutant pXCS881 (RSV A2, UniProt P03420 26-109)
T3 chain 1: T1 chain 1 with S30C, C78T
T3 chain 2: T1 chain 2 with L6C, C12I, L52C, I54S, V160I, N235C, D350S, E351Q, D353S

T4: RSV F protein mutant pXCS842 (RSV A2, UniProt P03420 26-109)
T4 chain 1: T1 chain 1
T4 chain 2: T1 chain 2 with D350S

B1: MPE8 (antibody, V domains shown)
VH: EVQLVESGGGLVKPGGSLRLSCAASGFTFSSYSMNWVRQAPGKGLEWVSSISASSSYSDYADSAKGRFTISRDNAKTSLFLQMNSLRAEDTAIYFCARARATGYSSITPYFDIWGQGTLVTVSS
VL: QSVVTQTPSVSGAPGQRVTISCTGSSSNIGAGYDVHWYQQLPGTAPKLLIYDNNNRPSGVPDRFSASKSGTSASLAITGLQAEDEADYYCQSYDRNLSGVFGTGTKVTVL
notes: also called MPEG
B2: AM22 (antibody, V domains shown)
VH: QVQLVQSGAEVKKPGATVKVSCKISGHTLIKLSIHWVRQAPGKGLEWMGGYEGEVDEIFYAQKFQHRLTVIADTATDTVYMELGRLTSDDTAVYFCGTLGVTVTEAGLGIDDYWGQGTLVTVSS
VL: EIVLTQSPGTLSLSPGERATLSCRASQIVSRNHLAWYQQKPGQAPRLLIFGASSRATGIPVRFSGSGSGTDFTLTINGLAPEDFAVYYCLSSDSSIFTFGPGTKVDFK

Assays:
Assay in all cases: BLI (Octet), F on anti-HIS tip, 20 nM mAb
[1] = molecular target: T1, RSV F protein mutant pXCS827
[2] = molecular target: RSV F protein mutant pXCS787 (RSV A2, UniProt P03420 26-109)
[3] = molecular target: T2, RSV F protein mutant pXCS858
[4] = molecular target: RSV F protein mutant pXCS740 (RSV A2, UniProt P03420 26-109)
[5] = molecular target: RSV F protein mutant pXCS782 (RSV A2, UniProt P03420 26-109)
[6] = molecular target: RSV F protein mutant pXCS779 (RSV A2, UniProt P03420 26-109)
[7] = molecular target: T3, RSV F protein mutant pXCS881
[8] = molecular target: T4, RSV F protein mutant pXCS842
[9] = molecular target: RSV F protein mutant pXCS883 (RSV A2, UniProt P03420 26-109)

Row | Binder | Response (nm shift) [1] [nm] | Response (nm shift) [2] [nm] | Response (nm shift) [3] [nm] | Response (nm shift) [4] [nm] | Response (nm shift) [5] [nm] | Response (nm shift) [6] [nm] | Response (nm shift) [7] [nm] | Response (nm shift) [8] [nm] | Response (nm shift) [9] [nm]
1 | B1 | 0.88 | 0.621 | 1.06 | 0.546 | 0.513 | 0.232 | 0.763 | 0.932 | 0.704
2 | B2 | 0.45 | 0.225 | 0.547 | 0.172 | 0.222 | 0.125 | 0.178 | 0.493 | 0.233
